Measurements taken from article PMC7826282 (Nucleic Acids Research, 2020).
Changes are numbered by the printed parent chain. In names and notes the source's numbering stands. Each block holds one binder with its values, some of them ahead of it.

Experiments:
3xFLAG-FL-NOPCHAP1 = target: T1, 3xFLAG-FL-NOPCHAP1 (human, UniProt Q8N5I9 1-185); assay: co-IP
T1 sequence (looked up): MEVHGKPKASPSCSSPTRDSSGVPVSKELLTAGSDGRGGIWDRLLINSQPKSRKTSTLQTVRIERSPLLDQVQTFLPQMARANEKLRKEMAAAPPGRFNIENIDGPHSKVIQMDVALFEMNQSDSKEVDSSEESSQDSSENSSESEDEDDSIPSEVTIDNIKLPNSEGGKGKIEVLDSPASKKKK

3xFLAG-FL-RUVBL1 (WT) = 3xFLAG-FL-RUVBL1 (WT) (mouse, UniProt P60122 1-456); assay: co-IP
3xFLAG-FL-RUVBL2 (WT) = 3xFLAG-FL-RUVBL2 (WT) (mouse, UniProt Q9WTM5 1-463); assay: co-IP
RUVBL1/2 WT complex = RUVBL1/2 WT complex ( (human or mouse cDNA cloned), UniProt Q9Y265 1-456; Q9Y230 1-463); assay: SPR
Chain of RUVBL1/2 WT complex (Q9Y265 whole entry, one chain of several): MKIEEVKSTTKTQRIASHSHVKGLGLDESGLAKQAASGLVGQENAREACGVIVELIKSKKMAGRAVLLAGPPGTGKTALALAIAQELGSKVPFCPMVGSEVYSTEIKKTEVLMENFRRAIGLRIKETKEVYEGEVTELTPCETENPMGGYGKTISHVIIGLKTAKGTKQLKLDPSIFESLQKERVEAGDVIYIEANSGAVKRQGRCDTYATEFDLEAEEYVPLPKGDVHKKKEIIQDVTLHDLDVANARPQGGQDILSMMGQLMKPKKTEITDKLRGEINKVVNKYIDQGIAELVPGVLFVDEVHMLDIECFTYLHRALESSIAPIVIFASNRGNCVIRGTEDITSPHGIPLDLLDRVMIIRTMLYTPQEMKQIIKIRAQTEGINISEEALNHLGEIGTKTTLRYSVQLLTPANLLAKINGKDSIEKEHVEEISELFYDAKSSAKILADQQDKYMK

Chain of 3xFLAG-FL-RUVBL1 (WT) (P60122 whole entry): as the sequence (Q9Y265 whole entry, one chain of several) above, with I291V counted along it

B3: RL-NOP58 (natural protein, human, UniProt Q9Y2X3 1-529, looked up)
chain: MLVLFETSVGYAIFKVLNEKKLQEVDSLWKEFETPEKANKIVKLKHFEKFQDTAEALAAFTALMEGKINKQLKKVLKKIVKEAHEPLAVADAKLGGVIKEKLNLSCIHSPVVNELMRGIRSQMDGLIPGVEPREMAAMCLGLAHSLSRYRLKFSADKVDTMIVQAISLLDDLDKELNNYIMRCREWYGWHFPELGKIISDNLTYCKCLQKVGDRKNYASAKLSELLPEEVEAEVKAAAEISMGTEVSEEDICNILHLCTQVIEISEYRTQLYEYLQNRMMAIAPNVTVMVGELVGARLIAHAGSLLNLAKHAASTVQILGAEKALFRALKSRRDTPKYGLIYHASLVGQTSPKHKGKISRMLAAKTVLAIRYDAFGEDSSSAMGVENRAKLEARLRTLEDRGIRKISGTGKALAKTEKYEHKSEVKTYDPSGDSTLPTCSKKRKIEQVDKEDEITEKKAKKAKIKVKVEEEEEEKVAEEEETSVKKKKKRGKKKHIKEEPLSEEEPCTSTAIASPEKKKKKKKKRENED
- co-IP efficiency (3xFLAG-FL-RUVBL1 (WT)): < 0.1%
- co-IP efficiency (3xFLAG-FL-NOPCHAP1): 0.18%
- fold over the control IP without antibody (3xFLAG-FL-NOPCHAP1): 64 fold
- co-IP efficiency (3xFLAG-FL-RUVBL2 (WT)): < 0.1%

B4: Avi-NOPCHAP1-6xHis, biotinylated (natural protein, human, UniProt Q8N5I9 1-185, looked up)
chain: T1 sequence (looked up)
modifications: biotin (cellular biotinylation by BirA)
- Kd (RUVBL1/2 WT complex): 1.98 nM

The next lines start with the values.

- co-IP efficiency (3xFLAG-FL-NOPCHAP1): 0.35%
B1: RL-RUVBL2-E300Q (natural protein, mouse, UniProt Q9WTM5 1-463, looked up)
chain: MATVAATTKVPEIRDVTRIERIGAHSHIRGLGLDDALEPRQASQGMVGQLAARRAAGVVLEMIREGKIAGRAVLIAGQPGTGKTAIAMGMAQALGPDTPFTAIAGSEIFSLEMSKTEALTQAFRRSIGVRIKEETEIIEGEVVEIQIDRPATGTGSKVGKLTLKTTEMETIYDLGTKMIESLTKDKVQAGDVITIDKATGKISKLGRSFTRARDYDAMGSQTKFVQCPDGELQKRKEVVHTVSLHEIDVINSRTQGFLALFSGDTGEIKSEVREQINAKVAEWREEGKAEIIPGVLFIDQVHMLDIESFSFLNRALESDMAPVLIMATNRGITRIRGTSYQSPHGIPIDLLDRLLIVSTSPYSEKDTKQILRIRCEEEDVEMSEDAYTVLTRIGLETSLRYAIQLITAASLVCRKRKGTEVQVDDIKRVYSLFLDESRSTQYMKEYQDAFLFNELKGETMDTS

- co-IP efficiency (3xFLAG-FL-NOPCHAP1): 7.5%
B2: RL-RUVBL2-K83M (natural protein, mouse, UniProt Q9WTM5 1-463, looked up)
chain: B1 chain with K83M, Q300E
